Experiments:
C57BL/6 mice = test: In vivo CTL response by ELISPOT IFN-γ assay; design: species or system mouse; settings: for SIINFEKL-specific CTL response in vivo: immunized C57BL/6 mice, ELISPOT
Text: in vivo CTL response by ELISPOT IFN-γ assay. C57BL/6 mice were immunized subcutaneously with each immunogen (2 nmol […] equivalents per mouse) together with incomplete Freunds Adjuvants (IFA; Sigma, USA) at their left flanks. The immunization was repeated at their right flanks 1 week later. At 10 days after the second immunization, mice were sacrificed, and the spleens were harvested. The spleens of the sacrificed mice were teased into single-cell suspensions and filtered through nylon mesh […]. Red blood cells were lysed by Ammonium-Chloride-Potassium (ACK) lysing buffer. The washed and resuspended single cells were counted using Contess™ Automated Cell Counter (Invitrogen, USA). Splenocytes (8×10^6/mL) were incubated in RPMI-1640 medium supplemented with 10% heat inactivated fetal calf serum, 2 mM glutamine, 100 units/mL penicillin and 100 μg/mL streptomycin (Invitrogen, USA), in a 14 mL polypropylene tissue culture tube for 48 hours, with or without […] peptide (SEQ ID NO: 22) (2.5 μg/mL). The cells were then washed and recounted. 2×10^5 live cells in 100 μL medium were then loaded into wells of 96-well Filtration plates (Millipore, USA) coated with […] of capture anti-mouse IFN-γ mAb (Clone: R4-6A2, Biolegend, USA). Triplicates were set up for each condition. Cells were discarded after 24 hours of culture and the wells were incubated with […] of detectionbiotinylated, anti-mouse IFN-γ mAb overnight (Clone: XMG1.2-Biotin, Biolegend, USA). After the unbound antibodies were washed away from the wells, the bound antibodies were detected using horseradish peroxidase (HRP Avidin, Biolegend, USA) together with 3-amino-9-ethyl-carbazole (AEC) substrate (Sigma, USA). The membranes on the bottom of the wells were peeled off, and color spots on the membrane were scanned. The spots were automatically counted using ImageJ software.
Animal immunization. C57BL/6 mice were immunized by the subcutaneous injection of 2 nmol iTEP NP vaccines and incomplete Freunds Adjuvants (IFA; Sigma, USA) at their left flanks. Immunization was repeated at their right flanks after 1 week. On day 10 after the second immunization, mice were sacrificed, and the spleens were harvested.

[1] = Critical micelle concentration by pyrene assay; assay type: physicochemical; settings: pyrene assay in PBS
Experimental: Measurement of critical micelle concentrations (CMCs) of iTEP-vaccine fusions by pyrene assay. The CMCs of iTEP-vaccine fusions (NPs) were measured through fluorescence spectra by using pyrene as a hydrophobic fluorescent probe as described previously with some adjustments (Ohyanagi et al., Jpn J Clin Oncol, 2011; 41(5); 718-22; Dreher et al., J Am Chem Soc, 2008; 130(2):687-94). Briefly, the fusions were serially 2×time diluted in PBS starting from 250 μM in 96-well black clear-bottom plates. The final volume for each dilution was 150 μL. Three μL of a stock solution of 30 μM pyrene in ethanol was added to each well and mixed well. Fluorescence of these samples were scanned using an Infinite M1000 PRO plate reader (Tecan Trading AG, Switzerland) with the setting: Ex: 334 nm with a slit of 10 nm, Em: ranging 360-400 nm with a slit of 2.5 nm. Four peaks were recorded for pyrene between 360-400 nm. The ratio of emission peak number 1 (I1; 370-373 nm) and emission peak number 3 (I3; 381-384 nm) of pyrene (I1/I3) was plotted as a function of iTEP concentration. The data points were fitted to a sigmoidal-dose response curve, and the CMC was defined as the inflection point of the curve.

DC2.4 cells = test: Cellular uptake of iTEP-vaccine fusions by DCs; assay type: cell-based, murine
Experimental: Fluorescent labeling of iTEP-vaccine fusions. For the flow cytometry study, the fusions were labeled with the amine-reactive coumarin, 7-diethylaminocoumarin-3-carboxylic acid, through succinimidyl ester to form blue-fluorescent bioconjugates. For the microscopy-based cellular uptake study and the cellular degradation study, the fusions were labeled with Alexa Fluo 488 5-SDP ester (Alexa-488) to form green-fluorescent bioconjugates. The reactions were performed based on the manufacturer's instructions (Molecular Probes by Life Technologies). Briefly, 10 mg of iTEPs were reacted with 1 mg of coumarin or 0.2 mg of Alexa-488 in 0.1 M sodium bicarbonate buffer, pH 8.3 at a final volume of 1 mL. The reaction was carried out with continuous stirring in the dark and at room temperature for 1.5 h. The protein-dye conjugates were purified using Amicon Ultra1-5 (10k) centrifugal filters (Millipore). The coumarin conjugate was measured for their absorbances of at 205 nm (A205) and 433 nm (A433, λmax for coumarin); the Alexa-488 conjugate was measured at 205 nm and 495 nm (A495, λmax for Alexa-488). The iTEP-vaccine fusion concentrations and the degree of labeling (DOL) were calculated based on these equations: […]
Cellular uptake of iTEP-vaccine fusions. […] The fluorescence of the cells was measured by flow cytometry (collecting 5×10^4 events per sample). […]

B1: ST-NP: stable NP of the fusion iTEPB70-iTEPA56-pOVA (SEQ ID NO: 60) (protein)
chain: GGAGVPGGAGVPGGAGVPGGAGVPGGAGVPGGAGVPGGAGVPGGAGVPGGAGVPGGAGVPGGAGVPGGAGVPGGAGVPGGAGVPGGAGVPGGAGVPGGAGVPGGAGVPGGAGVPGGAGVPGGAGVPGGAGVPGGAGVPGGAGVPGGAGVPGGAGVPGGAGVPGGAGVPGGAGVPGGAGVPGGAGVPGGAGVPGGAGVPGGAGVPGGAGVPGGAGVPGGAGVPGGAGVPGGAGVPGGAGVPGGAGVPGGAGVPGGAGVPGGAGVPGGAGVPGGAGVPGGAGVPGGAGVPGGAGVPGGAGVPGGAGVPGGAGVPGGAGVPGGAGVPGGAGVPGGAGVPGGAGVPGGAGVPGGAGVPGGAGVPGGAGVPGGAGVPGGAGVPGGAGVPGGAGVPGGAGVPGGAGVPGGAGVPGGAGVPGGAGVPGGGVLPGVGGVLPGVGGVLPGVGGVLPGVGGVLPGVGGVLPGVGGVLPGVGGVLPGVGGVLPGVGGVLPGVGGVLPGVGGVLPGVGGVLPGVGGVLPGVGGVLPGVGGVLPGVGGVLPGVGGVLPGVGGVLPGVGGVLPGVGGVLPGVGGVLPGVGGVLPGVGGVLPGVGGVLPGVGGVLPGVGGVLPGVGGVLPGVGGGGGGGGGCGGGGGGGGCGGGGGGGGCGGGGGGGGCGESIINFEKLTESIINFEKLTGG
With B1 the “SIINFEKL-specific CTL response in vivo” value (C57BL/6 mice) was “significantly weaker than the one elicited by the MS-NP”, the “CMC (critical micelle concentration)” value [1] was 23.94 µM and the “uptake by DCs, times more than the MS-NP” value (DC2.4 cells; 5 μM coumarin-labeled fusions, 4 h) was “two”.

B2: RED-NP: reductive-environment dependable NP, disulfide stabilized fusion iTEPB70-iTEPA28-(G8C)4-pOVA (SEQ ID NO: 61) (protein)
chain: GGAGVPGGAGVPGGAGVPGGAGVPGGAGVPGGAGVPGGAGVPGGAGVPGGAGVPGGAGVPGGAGVPGGAGVPGGAGVPGGAGVPGGAGVPGGAGVPGGAGVPGGAGVPGGAGVPGGAGVPGGAGVPGGAGVPGGAGVPGGAGVPGGAGVPGGAGVPGGAGVPGGAGVPGGAGVPGGAGVPGGAGVPGGAGVPGGAGVPGGAGVPGGAGVPGGAGVPGGAGVPGGAGVPGGAGVPGGAGVPGGAGVPGGAGVPGGAGVPGGAGVPGGAGVPGGAGVPGGAGVPGGAGVPGGAGVPGGAGVPGGAGVPGGAGVPGGAGVPGGAGVPGGAGVPGGAGVPGGAGVPGGAGVPGGAGVPGGAGVPGGAGVPGGAGVPGGAGVPGGAGVPGGAGVPGGAGVPGGAGVPGGAGVPGGAGVPGGAGVPGGGVLPGVGGVLPGVGGVLPGVGGVLPGVGGVLPGVGGVLPGVGGVLPGVGGVLPGVGGVLPGVGGVLPGVGGVLPGVGGVLPGVGGVLPGVGGVLPGVGGVLPGVGGVLPGVGGVLPGVGGVLPGVGGVLPGVGGVLPGVGGVLPGVGGVLPGVGGVLPGVGGVLPGVGGVLPGVGGVLPGVGGVLPGVGGVLPGVGGCGCGCGCGESIINFEKLTESIINFEKLTGG
With B2 the “SIINFEKL-specific CTL response in vivo” value (C57BL/6 mice) was “outperformed the MS-NP and induced stronger CTL responses” and the “internalization to DCs” value (DC2.4 cells; fluorescence microscopy and flow cytometry) was “as efficient as the ST-NP and more robust than the MS-NP”.

B3: G(GAGVPG)70G(GVLPGVG)28G(ESIINFEKLT)2GG (protein)
chain: GGAGVPGGAGVPGGAGVPGGAGVPGGAGVPGGAGVPGGAGVPGGAGVPGGAGVPGGAGVPGGAGVPGGAGVPGGAGVPGGAGVPGGAGVPGGAGVPGGAGVPGGAGVPGGAGVPGGAGVPGGAGVPGGAGVPGGAGVPGGAGVPGGAGVPGGAGVPGGAGVPGGAGVPGGAGVPGGAGVPGGAGVPGGAGVPGGAGVPGGAGVPGGAGVPGGAGVPGGAGVPGGAGVPGGAGVPGGAGVPGGAGVPGGAGVPGGAGVPGGAGVPGGAGVPGGAGVPGGAGVPGGAGVPGGAGVPGGAGVPGGAGVPGGAGVPGGAGVPGGAGVPGGAGVPGGAGVPGGAGVPGGAGVPGGAGVPGGAGVPGGAGVPGGAGVPGGAGVPGGAGVPGGAGVPGGAGVPGGAGVPGGAGVPGGAGVPGGAGVPGGESIINFEKLTESIINFEKLTGG
For B3, the “SIINFEKL-restricted activated splenocytes (INF-γ ELISPOT)” value (C57BL/6 mice; subcutaneous immunization twice, 2 nmol SIINFEKL equivalents per mouse with IFA) was 105 spots per million seeded splenocytes and the “CMC (critical micelle concentration)” value [1] was 120.6 µM.

— patent publication US11957762B2, “Immune tolerant and non-immune tolerant elastin-like recombinant peptides and methods of use” (University of Utah Research Foundation, priority 2015, dated 2024)
